{"source": "the supplement of paper PMC6755084", "parents": {"B1": {"name": "F1*; the commonest letter at each place (parent)", "chain": "GAGACCGCAACTGAAAAGTTGTTATCACTTGTCGTAAGACACTTTGGATGGGTTGAAGTTCTGCACGTAGAAGCAAAAGGC"}}}
{"variants_of": "B1", "experiment": "fraction ligated after 30 min (ligated reads / total reads); higher = more ligase activity", "conditions": "with F1*sub RNA substrate (template-directed ligation), 42 °C", "outline": "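The ligase ribozyme variants were produced by PCR amplification of oligo-pool templates, T7 transcription and purification on gel. Their ligated and unligated forms were gel-separated, then reverse transcribed with barcoded primers before MiSeq sequencing. Core bases were filtered at a quality of ≥20, and fraction ligated per variant was ligated reads over total reads.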"}
{"variant": "GAGACCGCAACTGAAAAGTTGTTATCGCTTGTCGTAAGACACTTGGGATGGGTTGAAGTTCTGCACGTAGAAGCAAAAGGC", "note": "[A27G T45G]", "fraction ligated": 0.217}
{"variant": "GAGACCGCAACTGAAAAGTTGTTATCGCTTGTCGTAAGACACTTCGGATGGGTTGAAGTTCTGCACGTAGAAGCAAAAGGC", "note": "[A27G T45C]", "fraction ligated": 0.357}
{"variant": "GAGACCGCAACTGAAAAGTTGTTATCGCTTGTCGTAAGACACTTAGGATGGGTTGAAGTTCTGCACGTAGAAGCAAAAGGC", "note": "[A27G T45A]", "fraction ligated": 0.694}
{"variant": "GAGACCGCAACTGAAAAGTTGTTATCGCTTGTCGTAAGACACTATGGATGGGTTGAAGTTCTGCACGTAGAAGCAAAAGGC", "note": "[A27G T44A]", "fraction ligated": 0.812}
{"variant": "GAGACCGCAACTGAAAAGTTGTTATCGCTTGTCGTAAGACACTCTGGATGGGTTGAAGTTCTGCACGTAGAAGCAAAAGGC", "note": "[A27G T44C]", "fraction ligated": 0.81}
{"variant": "GAGACCGCAACTGAAAAGTTGTTATCGCTTGTCGTAAGACACTGTGGATGGGTTGAAGTTCTGCACGTAGAAGCAAAAGGC", "note": "[A27G T44G]", "fraction ligated": 0.813}
{"variant": "GAGACCGCAACTGAAAAGTTGTTATCGCTTGTCGTAAGACACATTGGATGGGTTGAAGTTCTGCACGTAGAAGCAAAAGGC", "note": "[A27G T43A]", "fraction ligated": 0.829}
{"variant": "GAGACCGCAACTGAAAAGTTGTTATCGCTTGTCGTAAGACACGTTGGATGGGTTGAAGTTCTGCACGTAGAAGCAAAAGGC", "note": "[A27G T43G]", "fraction ligated": 0.796}
{"variant": "GAGACCGCAACTGAAAAGTTGTTATCGCTTGTCGTAAGACACCTTGGATGGGTTGAAGTTCTGCACGTAGAAGCAAAAGGC", "note": "[A27G T43C]", "fraction ligated": 0.806}
{"variant": "GAGACCGCAACTGAAAAGTTGTTATCGCTTGTCGCAAGACACTTTGGATGGGTTGAAGTTCTGCACGTAGAAGCAAAAGGC", "note": "[A27G T35C]", "fraction ligated": 0.812}
{"variant": "GAGACCGCAACTGAAAAGTTGTTATCGCTTGTCGGAAGACACTTTGGATGGGTTGAAGTTCTGCACGTAGAAGCAAAAGGC", "note": "[A27G T35G]", "fraction ligated": 0.839}
{"variant": "GAGACCGCAACTGAAAAGTTGTTATCGCTTGTCGAAAGACACTTTGGATGGGTTGAAGTTCTGCACGTAGAAGCAAAAGGC", "note": "[A27G T35A]", "fraction ligated": 0.847}
{"variant": "GAGACCGCAACTGAAAAGTTGTTATCTCTTGTCGTATGACACTTTGGATGGGTTGAAGTTCTGCACGTAGAAGCAAAAGGC", "note": "[A27T A37T]", "fraction ligated": 0.808}
{"variant": "GAGACCGCAACTGAAAAGTTGTTATCTCTTGTCGTACGACACTTTGGATGGGTTGAAGTTCTGCACGTAGAAGCAAAAGGC", "note": "[A27T A37C]", "fraction ligated": 0.818}
{"variant": "GAGACCGCAACTGAAAAGTTGTTATCTCTTGTCGTAGGACACTTTGGATGGGTTGAAGTTCTGCACGTAGAAGCAAAAGGC", "note": "[A27T A37G]", "fraction ligated": 0.846}
{"variant": "GAGACCGCAACTGAAAAGTTGTTATCGCTTGTAGTAAGACACTTTGGATGGGTTGAAGTTCTGCACGTAGAAGCAAAAGGC", "note": "[A27G C33A]", "fraction ligated": 0.8}
{"variant": "GAGACCGCAACTGAAAAGTTGTTATCGCTTGTGGTAAGACACTTTGGATGGGTTGAAGTTCTGCACGTAGAAGCAAAAGGC", "note": "[A27G C33G]", "fraction ligated": 0.846}
{"variant": "GAGACCGCAACTGAAAAGTTGTTATCGCTTGTTGTAAGACACTTTGGATGGGTTGAAGTTCTGCACGTAGAAGCAAAAGGC", "note": "[A27G C33T]", "fraction ligated": 0.828}
{"variant": "GAGACCGCAACTGAAAAGTTGTTATCTCTTGTCGTAAGTCACTTTGGATGGGTTGAAGTTCTGCACGTAGAAGCAAAAGGC", "note": "[A27T A39T]", "fraction ligated": 0.783}
{"variant": "GAGACCGCAACTGAAAAGTTGTTATCTCTTGTCGTAAGCCACTTTGGATGGGTTGAAGTTCTGCACGTAGAAGCAAAAGGC", "note": "[A27T A39C]", "fraction ligated": 0.782}
{"variant": "GAGACCGCAACTGAAAAGTTGTTATCTCTTGTCGTAAGGCACTTTGGATGGGTTGAAGTTCTGCACGTAGAAGCAAAAGGC", "note": "[A27T A39G]", "fraction ligated": 0.84}
{"variant": "GAGACCGCAACTGAAAAGTTGTTATCGCTTTTCGTAAGACACTTTGGATGGGTTGAAGTTCTGCACGTAGAAGCAAAAGGC", "note": "[A27G G31T]", "fraction ligated": 0.791}
{"variant": "GAGACCGCAACTGAAAAGTTGTTATCGCTTATCGTAAGACACTTTGGATGGGTTGAAGTTCTGCACGTAGAAGCAAAAGGC", "note": "[A27G G31A]", "fraction ligated": 0.776}
{"variant": "GAGACCGCAACTGAAAAGTTGTTATCGCTTCTCGTAAGACACTTTGGATGGGTTGAAGTTCTGCACGTAGAAGCAAAAGGC", "note": "[A27G G31C]", "fraction ligated": 0.798}
{"variant": "GAGACCGCAACTGAAAAGTTGTTATCTCTTGTCGTCAGACACTTTGGATGGGTTGAAGTTCTGCACGTAGAAGCAAAAGGC", "note": "[A27T A36C]", "fraction ligated": 0.868}
{"variant": "GAGACCGCAACTGAAAAGTTGTTATCTCTTGTCGTGAGACACTTTGGATGGGTTGAAGTTCTGCACGTAGAAGCAAAAGGC", "note": "[A27T A36G]", "fraction ligated": 0.862}
{"variant": "GAGACCGCAACTGAAAAGTTGTTATCTCTTGTCGTTAGACACTTTGGATGGGTTGAAGTTCTGCACGTAGAAGCAAAAGGC", "note": "[A27T A36T]", "fraction ligated": 0.798}
{"variant": "GAGACCGCAACTGAAAAGTTGTTATCGCTTGTCGTAAGAAACTTTGGATGGGTTGAAGTTCTGCACGTAGAAGCAAAAGGC", "note": "[A27G C40A]", "fraction ligated": 0.79}
{"variant": "GAGACCGCAACTGAAAAGTTGTTATCGCTTGTCGTAAGATACTTTGGATGGGTTGAAGTTCTGCACGTAGAAGCAAAAGGC", "note": "[A27G C40T]", "fraction ligated": 0.817}
{"variant": "GAGACCGCAACTGAAAAGTTGTTATCGCTTGTCGTAAGAGACTTTGGATGGGTTGAAGTTCTGCACGTAGAAGCAAAAGGC", "note": "[A27G C40G]", "fraction ligated": 0.813}
{"variant": "GAGACCGCAACTGAAAAGTTGTTATCGCTTGTCGTAAGACACTTTGGAAGGGTTGAAGTTCTGCACGTAGAAGCAAAAGGC", "note": "[A27G T49A]", "fraction ligated": 0.721}
{"variant": "GAGACCGCAACTGAAAAGTTGTTATCGCTTGTCGTAAGACACTTTGGACGGGTTGAAGTTCTGCACGTAGAAGCAAAAGGC", "note": "[A27G T49C]", "fraction ligated": 0.601}
{"variant": "GAGACCGCAACTGAAAAGTTGTTATCGCTTGTCGTAAGACACTTTGGAGGGGTTGAAGTTCTGCACGTAGAAGCAAAAGGC", "note": "[A27G T49G]", "fraction ligated": 0.774}
{"variant": "GAGACCGCAACTGAAAAGTTGTTATCGCTTGTCTTAAGACACTTTGGATGGGTTGAAGTTCTGCACGTAGAAGCAAAAGGC", "note": "[A27G G34T]", "fraction ligated": 0.804}
